The results in this text go back to article PMC5715728.

What is called stoichiometry N is the number of molecules, sites or subunits per partner or assembly.

The test has as its target major capsid protein (MCP) (human cytomegalovirus (HCMV) strain AD169) (UniProt P16729). Kind of test: cryo-EM structure.

With “smallest capsid protein (SCP) (from UniProt Q7M6N6 1-75) (natural protein)”, the stoichiometry N worked out at 1.
